Experiment: Tolerability observations after IV dosing in the rat PK study
Format: in vivo
Conditions: rats, 1 mg/kg dose, three rats
Experimental: For PK studies, a 0.1 mg/mL solution was dosed at 10 mL/kg such that a 1 mg/kg IV bolus dose was introduced by tail vein injection into rats Following compound administration, blood was collected at 0.083 h, 0.25 h, 0.5 h, 1 h, 2 h, 4 h, 8 h, and 24 h post dose into lithium heparin coated vacuum tubes. Tubes were inverted for 5 minutes and then placed on wet ice until centrifuged for 5 minutes at 4° C. at 6000 rpm. Plasma was harvested, frozen at −80° C. and shipped to for bioanalysis on dry ice.

CCCCN(CCSSC[C@@H]1NC(=O)[C@@H](Cc2ccccc2)NC(=O)[C@H](CC(=O)O)NC(=O)CNC(=O)[C@H](CCCNC(=N)N)NC1=O)C(=O)O[C@@H](C(=O)OC1C[C@@]2(O)[C@@H](OC(=O)c3ccccc3)[C@@H]3[C@]4(OC(C)=O)CO[C@@H]4C[C@H](OC)[C@@]3(C)C(=O)[C@H](OC)C(=C1C)C2(C)C)[C@@H](NC(=O)OC(C)(C)C)c1ccccc1 (some centres unmarked) [BT-568]
Clinical signs of toxicity post dose: lethargy and labored breathing were observed immediately post dose in all three rats
Mortality: one of the three animals died

Reference: patent US20220288229A1 (priority 2012, published 2022)
